The values below come from WO1994029351A2.

In experiment [1] the target is Purified human C1q (Sigma UK) (human) (UniProt P02745). Nature of the experiment: cell-based or functional assay.
Experiment [2] concerns the target FcγRIII on human peripheral blood mononuclear effector cells (human) (UniProt P08637). In words: cell-based or functional assay.
Experiment [3] addresses guinea pig complement (serum). In words: cell-based or functional assay.
Experiment [4] deals with FcγRI on IFNγ stimulated U937 cells (UniProt P12314). Nature of the experiment: 50% inhibition of binding of FITC-labelled mouse lgG2a antibody to U937 cells, FACS.
FcγRI on IFNγ stimulated U937 cells, sequence (P12314 16-374 limits assumed): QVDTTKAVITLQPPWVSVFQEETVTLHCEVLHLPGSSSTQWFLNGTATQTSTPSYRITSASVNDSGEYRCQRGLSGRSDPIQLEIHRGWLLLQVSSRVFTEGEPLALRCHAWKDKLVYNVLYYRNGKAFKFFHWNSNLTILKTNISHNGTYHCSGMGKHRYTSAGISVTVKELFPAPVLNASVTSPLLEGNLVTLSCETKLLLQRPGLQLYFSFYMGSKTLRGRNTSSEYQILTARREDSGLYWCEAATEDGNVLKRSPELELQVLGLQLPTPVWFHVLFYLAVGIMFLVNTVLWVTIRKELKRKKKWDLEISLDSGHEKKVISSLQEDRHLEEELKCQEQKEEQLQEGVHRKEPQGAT

FcγRIII on human peripheral blood mononuclear effector cells (human), sequence (P08637 17-254): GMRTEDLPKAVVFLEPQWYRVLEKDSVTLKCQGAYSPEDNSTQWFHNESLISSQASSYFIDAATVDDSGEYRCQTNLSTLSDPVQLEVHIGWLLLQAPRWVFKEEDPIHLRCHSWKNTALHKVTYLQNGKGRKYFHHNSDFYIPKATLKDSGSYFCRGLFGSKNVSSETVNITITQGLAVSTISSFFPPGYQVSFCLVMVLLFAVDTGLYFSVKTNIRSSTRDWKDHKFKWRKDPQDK
Purified human C1q (Sigma UK) (human), sequence (P02745 23-245 limits assumed, chain 1 of 3): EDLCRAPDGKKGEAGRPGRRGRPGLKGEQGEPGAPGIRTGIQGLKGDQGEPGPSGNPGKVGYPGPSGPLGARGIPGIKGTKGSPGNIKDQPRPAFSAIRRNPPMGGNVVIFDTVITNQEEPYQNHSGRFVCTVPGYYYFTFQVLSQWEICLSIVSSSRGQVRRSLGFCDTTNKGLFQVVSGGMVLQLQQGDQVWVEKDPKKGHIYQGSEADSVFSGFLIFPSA
Purified human C1q (Sigma UK) (human), sequence (P02746 28-253 limits assumed, chain 2 of 3, further chain): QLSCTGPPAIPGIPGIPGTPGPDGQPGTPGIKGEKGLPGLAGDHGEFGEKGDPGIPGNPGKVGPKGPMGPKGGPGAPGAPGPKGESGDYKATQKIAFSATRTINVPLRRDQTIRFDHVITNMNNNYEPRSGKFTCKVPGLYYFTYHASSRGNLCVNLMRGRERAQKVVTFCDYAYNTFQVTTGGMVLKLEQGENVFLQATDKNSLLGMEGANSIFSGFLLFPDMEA
Purified human C1q (Sigma UK) (human), sequence (P02747 29-245 limits assumed, chain 3 of 3, further chain): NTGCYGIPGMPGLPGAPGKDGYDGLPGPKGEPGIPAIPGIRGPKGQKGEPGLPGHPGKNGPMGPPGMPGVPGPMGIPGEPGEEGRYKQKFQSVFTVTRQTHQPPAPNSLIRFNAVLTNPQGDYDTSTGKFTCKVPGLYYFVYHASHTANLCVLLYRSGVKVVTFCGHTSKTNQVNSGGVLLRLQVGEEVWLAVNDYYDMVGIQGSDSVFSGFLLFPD

Take “chimeric L243 G1[G237A] (from UniProt P01857 1-330; P01834 1-107) (antibody)”: in experiment [1], the mg/ml antibody necessary for half maximal cell killing by human complement amounted to 2 mg/mL and the percent plateau cell killing by human complement turned out to be 20%.

In experiment [1], “chimeric L243 G1[K320A] (from UniProt P01857 1-330; P01834 1-107) (antibody)” had a mg/ml antibody necessary for half maximal cell killing by human complement of 0.6 mg/mL and a percent plateau cell killing by human complement of 70%. The same substance registered a ng/ml antibody necessary for half maximal cell killing in ADCC in experiment [2] of 10 ng/mL.

In experiment [1], “chimeric L243 G1[L235A] (from UniProt P01857 1-330; P01834 1-107) (antibody)” registered a mg/ml antibody necessary for half maximal cell killing by human complement of over 20 mg/mL and a percent plateau cell killing by human complement of 0%. The plateau level killing with guinea pig complement in experiment [3] was determined as 49%. In experiment [2], this substance yielded a ng/ml antibody necessary for half maximal cell killing in ADCC of 9 ng/mL.

As for “chimeric L243 G1[L235E] (from UniProt P01857 1-330; P01834 1-107) (antibody)”, in experiment [1], the mg/ml antibody necessary for half maximal cell killing by human complement is over 20 mg/mL and the percent plateau cell killing by human complement was found to be 0%. The substance also returned a plateau level killing with guinea pig complement in experiment [3] of 40%.

“chimeric L243 G4[L235E] (from UniProt P01861 1-327; P01834 1-107) (antibody)”: in experiment [1], the mg/ml antibody necessary for half maximal cell killing by human complement was over 20 mg/mL and the percent plateau cell killing by human complement was 0%. This substance yielded a ng/ml antibody necessary for half maximal cell killing in ADCC in experiment [2] of over 100000 ng/mL.

In experiment [1], “chimeric L243 human lgG1 wild type (from UniProt P01857 1-330; P01834 1-107) (antibody)” gave a maximum cell killing by human complement of 64%, a mg/ml antibody necessary for half maximal cell killing by human complement of 0.6 mg/mL and a percent plateau cell killing by human complement of 65%. The substance also displayed a plateau level killing with guinea pig complement in experiment [3] of 80%. Moreover, in experiment [4], the IC50 worked out at 130 µg/mL.

In experiment [1], “chimeric L243 human lgG2 (from UniProt P01859 1-326; P01834 1-107) (antibody)” yielded a mg/ml antibody necessary for half maximal cell killing by human complement of over 20 mg/mL and a percent plateau cell killing by human complement of 0%. This substance also showed a ng/ml antibody necessary for half maximal cell killing in ADCC in experiment [2] of over 100000 ng/mL.

In experiment [1], “chimeric L243 human lgG4 (from UniProt P01861 1-327; P01834 1-107) (antibody)” returned a mg/ml antibody necessary for half maximal cell killing by human complement of over 20 mg/mL and a percent plateau cell killing by human complement of 0%. Also, in experiment [2], the maximum killing in ADCC is 20% and the ng/ml antibody necessary for half maximal cell killing in ADCC (extrapolated value) was 10000 ng/mL. The substance also returned an IC50 in experiment [4] of 1200 µg/mL.

As usually defined, the IC50 is the midpoint of a concentration-inhibition curve. High values mean lower potency, low ones higher potency.
